Reference: the supplement of paper PMC7125110
± gives the standard error. This sample holds only a part of the variants without activity.

B1: glmS ribozyme (parent)
chain: AUAAAAGCGCCAGAACUACAGAAAUGUAGUUGACGAGGAGGAGGUUUAUCGAAUUUUCGGCGGAUGCCUCCAAA

Tests used:
Conditions in all cases: with glucosamine-6-phosphate
glucosamine-6-phosphate [1] = variants of: B1; assay: self-cleavage kobs at 40 uM GlcN6P; higher = faster cleavage; RNA array
Method in brief: (§1)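 A hybridised Cy3 probe tracked barcoded ribozyme variants, transcribed in situ by E. coli RNA polymerase on sequenced MiSeq chips, at 37 °C. The variants received 40 μM to 10 mM glucosamine-6-phosphate in HEPES/KCl/Mg(OAc)2 buffer. kobs came from decay fits and kcat and KM from weighted Michaelis–Menten fits.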

glucosamine-6-phosphate [2] = variants of: B1; assay: self-cleavage kobs at 160 uM GlcN6P; higher = faster cleavage; RNA array
Method in brief: as §1

glucosamine-6-phosphate [3] = variants of: B1; assay: self-cleavage kobs at 640 uM GlcN6P; higher = faster cleavage; RNA array
Method in brief: as §1

glucosamine-6-phosphate [4] = variants of: B1; assay: self-cleavage kobs at 10000 uM GlcN6P; higher = faster cleavage; RNA array
Method in brief: as §1

glucosamine-6-phosphate [5] = variants of: B1; assay: self-cleavage kobs at 2500 uM GlcN6P; higher = faster cleavage; RNA array
Method in brief: as §1

Variant | self-cleavage kobs at 40 uM GlcN6P (glucosamine-6-phosphate [1]) [s⁻¹] | self-cleavage kobs at 160 uM GlcN6P (glucosamine-6-phosphate [2]) [s⁻¹] | self-cleavage kobs at 640 uM GlcN6P (glucosamine-6-phosphate [3]) [s⁻¹] | self-cleavage kobs at 10000 uM GlcN6P (glucosamine-6-phosphate [4]) [s⁻¹] | self-cleavage kobs at 2500 uM GlcN6P (glucosamine-6-phosphate [5]) [s⁻¹]
U54G C70U | 0.00112 ± 0.00013 | 0.000836 ± 0.00011 | 0.00544 ± 0.001 | – | –
G13A C34G C50U C67G | 0.000108 ± 3.3e-05 | – | 0.00142 ± 0.00036 | 8.5e-05 ± 2.6e-05 | –
A33U C50A C68G | 4.36e-05 ± 2e-05 | – | – | – | –
G44C U49G | < 1e-05 | – | – | < 1e-05 | < 1e-05
C11A G43U | < 1e-05 | < 1e-05 | < 1e-05 | < 1e-05 | –
A6G C11U C16A A64G | < 1e-05 | < 1e-05 | < 1e-05 | < 1e-05 | –
C11A A12C G44C U49A | < 1e-05 | < 1e-05 | < 1e-05 | < 1e-05 | < 1e-05
C34U G40C G51U C61A G63U | < 1e-05 | – | – | – | –
C8G C50G | 0.000322 ± 0.00014 | 0.000106 ± 2.1e-05 | 0.00014 ± 3.4e-05 | 0.000242 ± 7.8e-05 | 0.000123 ± 2.4e-05
G7U G51A | < 1e-05 | < 1e-05 | – | < 1e-05 | < 1e-05
C10A G38U G40A | < 1e-05 | < 1e-05 | < 1e-05 | < 1e-05 | < 1e-05
A33G C61G | < 1e-05 | < 1e-05 | < 1e-05 | < 1e-05 | –
A33G G40U G43A U49A C58U | < 1e-05 | – | – | < 1e-05 | –
A12G G32A | < 1e-05 | < 1e-05 | – | 5.21e-05 ± 7.4e-06 | –
A53U U56G | 0.000405 ± 6.8e-05 | 0.000558 ± 0.00015 | 0.00241 ± 0.00042 | 0.0151 ± 0.004 | 0.00421 ± 0.0011
A14G A39G G41A U55G U69C A73U | < 1e-05 | – | – | – | –
C50U C58U | < 1e-05 | – | < 1e-05 | < 1e-05 | –
A36G G63A | < 1e-05 | < 1e-05 | < 1e-05 | < 1e-05 | < 1e-05
G44A G51A U65G C67G | < 1e-05 | < 1e-05 | < 1e-05 | < 1e-05 | < 1e-05
C16U U56G | 0.000579 ± 9.9e-05 | 0.000979 ± 0.0002 | 0.00302 ± 0.00067 | 0.0241 ± 0.0047 | 0.00709 ± 0.0016

Variant | self-cleavage kobs at 40 uM GlcN6P (glucosamine-6-phosphate [1]) [s⁻¹] | self-cleavage kobs at 160 uM GlcN6P (glucosamine-6-phosphate [2]) [s⁻¹] | self-cleavage kobs at 640 uM GlcN6P (glucosamine-6-phosphate [3]) [s⁻¹] | self-cleavage kobs at 10000 uM GlcN6P (glucosamine-6-phosphate [4]) [s⁻¹] | self-cleavage kobs at 2500 uM GlcN6P (glucosamine-6-phosphate [5]) [s⁻¹]
A36U U65G | < 1e-05 | < 1e-05 | – | < 1e-05 | –
C10U G37C | < 1e-05 | – | < 1e-05 | < 1e-05 | –
G40C U49A | < 1e-05 | – | < 1e-05 | < 1e-05 | –
C10A C70G | 2.53e-05 ± 1e-05 | – | 0.000116 ± 1.8e-05 | – | –
G43C U57A | < 1e-05 | – | < 1e-05 | < 1e-05 | –
A42U G44A U65G | < 1e-05 | < 1e-05 | < 1e-05 | < 1e-05 | < 1e-05
G44U C61G | < 1e-05 | < 1e-05 | < 1e-05 | < 1e-05 | < 1e-05
G32C A36U | < 1e-05 | < 1e-05 | < 1e-05 | – | < 1e-05
A39U G51U C67U | < 1e-05 | < 1e-05 | < 1e-05 | < 1e-05 | < 1e-05
A14G A39G | 0.004 ± 0.00057 | 0.00304 ± 0.00096 | 0.0236 ± 0.0054 | 0.138 ± 0.052 | –
U30G A33U G60A | < 1e-05 | – | < 1e-05 | – | < 1e-05
C10U C11U A64G U65A | < 1e-05 | – | – | – | –
A14C C61G | < 1e-05 | – | – | < 1e-05 | –
C8U G63U | < 1e-05 | < 1e-05 | < 1e-05 | – | –
A6C A36U G37C G60U | < 1e-05 | – | – | – | –
G29C A48U | < 1e-05 | < 1e-05 | – | – | –
G41A U49G C67U C71U | < 1e-05 | – | – | < 1e-05 | –
G41U A42U C50G | < 1e-05 | – | < 1e-05 | – | –
G40C C68A | < 1e-05 | < 1e-05 | < 1e-05 | < 1e-05 | < 1e-05
